From patent US20240317858A1 come the findings set out here.

Sequences and labels used below:
B1: Antibody No. A002 (ADI-50024) IgG1 (antibody, V domains shown)
VH: QVQLVQSGAEVKKPGASVKVSCKASGFNIKDYYMHWVRQAPGQRLEWIGWIDLENANTVYDAKFQGRVTITRDTSASTAYMELSSLRSEDTAVYYCARDAYGRYFYDVWGQGTLVTVSS
VL: DIVMSQSPDSLAVSLGERATINCKSSQSLLNARTGKNYLAWYQQKPGQPPKLLIYWASTRSSGVPDRFSGSGSGTDFTLTISSLQAEDVAVYYCVQSYFRRTFGGGTKVEIK
B2: Antibody No. V013 (ADI-70330) IgG1 (antibody, V domains shown)
VH: QVQLVQSGAEVKKPGASVKVSCKASGFNIDDYYMHWVRQAPGQRLEWIGWIDLENANTVDDAKFQGRVTITRDTSASTAYMELSSLRSEDTAVYYCARDAYGRYFYDVWGQGTLVTVSS
VL: DIVMSQSPDSLAVSLGERATINCKSSQSLLNARTGKNYLAWYQQKPGQPPKLLIYWASTRSSGVPDRFSGSGSGTDFTLTISSLQAEDVAVYYCVQSYFRRTFGGGTKVEIK
B3: Antibody No. V009 (ADI-70326) IgG1 (antibody, V domains shown)
VH: QVQLVQSGAEVKKPGASVKVSCKASGFDIKDYYMHWVRQAPGQRLEWIGWIELENADTVYDAKFQGRVTITRDTSASTAYMELSSLRSEDTAVYYCARDAYGRYFYDVWGQGTLVTVSS
VL: DIVMSQSPDSLAVSLGERATINCKSSQSLLNARTGKNYLAWYQQKPGQPPKLLIYWASTRSSGVPDRFSGSGSGTDFTLTISSLQAEDVAVYYCVQSYFRRTFGGGTKVEIK
B4: Antibody No. V010 (ADI-70327) IgG1 (antibody, V domains shown)
VH: QVQLVQSGAEVKKPGASVKVSCKASGFDIKDYYMHWVRQAPGQRLEWIGWIELENDDTVYDAKFQGRVTITRDTSASTAYMELSSLRSEDTAVYYCARDAYGRYFYDVWGQGTLVTVSS
VL: DIVMSQSPDSLAVSLGERATINCKSSQSLLNARTGKNYLAWYQQKPGQPPKLLIYWASTRSSGVPDRFSGSGSGTDFTLTISSLQAEDVAVYYCVQSYFRRTFGGGTKVEIK

The assay addresses Mouse CD3εδ Fc heterodimer (mouse) (UniProt P22646). The assay can be described thus: BLI (Octet), IgG avidity, pH 7.4. A general note: Biolayer interferometry detects binding as a change in optical thickness at a sensor tip.
The molecule B1 gave a Kd of 91 nM.
B2: the Kd is 530 nM.
B3 came in with a Kd of 360 nM.
The figure for B4 is 510 nM.
